Experiments:
Test in all cases: purified protein
Type in all cases: biochemical, Caenorhabditis elegans
[1] = test system: O=P(O)(O)O[C@H]1O[C@H](CO)[C@@H](O)[C@H](O)[C@@H]1O; conditions: 1 mM GTP, 5 mM MgCl2, pH 7.5, 25°C
[2] = test system: O=P(O)(O)O[C@H]1O[C@H](CO)[C@@H](O)[C@H](O)[C@H]1O; conditions: 1 mM GTP, 5 mM MgCl2, pH 7.5, 25°C
[3] = test system: Nc1nc2c(ncn2[C@@H]2O[C@H](COP(=O)(O)OP(=O)(O)OP(=O)(O)O)[C@@H](O)[C@H]2O)c(=O)[nH]1; conditions: 1 mM Man-1-P, 5 mM MgCl2, pH 7.5, 25°C

In the case of GMP-1 (Caenorhabditis elegans), the Km [1] is reported as 18.49 ± 2.14 µM, the kcat [1] is reported as 30.3 ± 0.69 s⁻¹ and the kcat/Km [1] is reported as 1.64e+06 ± 190000 M⁻¹ s⁻¹. For the same substance, the Km [2] was 508.90 ± 118.40 µM, the kcat [2] was 33.1 ± 2.9 s⁻¹ and the kcat/Km [2] was 65000 ± 16000 M⁻¹ s⁻¹. For the same substance, the Km [3] was 16.04 ± 1.68 µM, the kcat [3] was 29.1 ± 0.58 s⁻¹ and the kcat/Km [3] was 1.81e+06 ± 190000 M⁻¹ s⁻¹.

From article PMC4888466
